From article PMC7064775, “Cyclic di-GMP Signaling in Bacillus subtilis Is Governed by Direct Interactions of Diguanylate Cyclases and Cognate Receptors” (mBio, 2020)
Values belong to the molecule of their own block, whether it stands above or below them.

B4: His6-DgcK-ΔN175 (domain or fragment, Bacillus subtilis NCIB 3610, UniProt P54595 176-359, looked up)
chain: DHETNAHLLFKQYKFQAHFDFLTGVYNRRKFEETTKALYQQAADTPHFQFALIYMDIDHFKTINDQYGHHEGDQVLKELGLRLKQTIRNTDPAARIGGEEFAVLLPNCSLDKAARIAERIRSTVSDAPIVLTNGDELSVTISLGAAHYPNNTEQPGSLPILADQMLYKAKETGRNRVCFSEKKE
notes: Diguanylate cyclase DgcK of Bacillus subtilis NCIB 3610, soluble domain, residues 176 to 359 (construct pAT02b); also called His-DgcK-ΔN175; soluble domain of DgcK; source: E. coli BL21(DE3), purified (Ni-NTA, SEC); also coexpressed with YdaK-ΔN111 in E. coli BL21(DE3), in lysate; not shown: His6, N-terminal, kept
B5: GST-His6-DgrA (natural protein, Bacillus subtilis NCIB 3610, UniProt P38491 1-217, looked up)
chain: MIEIGENVLLEYIEENELKKAKSKAVSIENNELLIAYPVDVVTGRTVILHNDMEVTVEFVGKDEVPYRFISRIKGKVKDKLQMICLEMPPREKMKRIQRRQYVRTDAVLDVQIQPGNEEEIRTLSYNISAGGIAVVLADGLSFQSGESLRLIIRLPEEEHTRQIETEAVVRRIFNDPKSEKRKMTLEYSEIAAGDQQALLQYCIRRQLNKRRKARME
notes: PilZ domain c-di-GMP receptor DgrA of Bacillus subtilis NCIB 3610, residues 1 to 217, full length (construct pPB48); also called GST-His-DgrA; PilZ protein DgrA; source: E. coli BL21(DE3), purified (Ni-NTA, SEC); not shown: GST, N-terminal, kept; His6, N-terminal, kept

How the values were obtained:
DgcK-ΔN175 = molecular target: T1, DgcK-ΔN175 (Bacillus subtilis, UniProt P54595); assay: HPLC of nucleotide co-purified with the denatured protein; format: binding; conditions: ligand co-purified from E. coli host
T1 construct: soluble GGDEF domain, residues 176 to 359 (6 TM helices removed); N-terminal His6 or GST-His6, from E. coli BL21(DE3)

YdaK-ΔN111 [1] = molecular target: T2, YdaK-ΔN111 (Bacillus subtilis, UniProt P96585); assay: hydrogen-deuterium exchange mass spectrometry; format: binding; conditions: 50 µM protein, 1 mM c-di-GMP; pH 7.5, 20 mM MgCl2, 25 °C; I-site (RXXD)
T2 construct: soluble degenerate GGDEF domain, residues 112 to 283 (4 TM helices removed), from E. coli BL21(DE3)

YdaK-ΔN111 [2] = molecular target: T3, YdaK-ΔN111 (Bacillus subtilis, UniProt P96585, R202A); assay: hydrogen-deuterium exchange mass spectrometry; conditions: 50 µM protein, 1 mM c-di-GMP; pH 7.5, 20 mM MgCl2, 25 °C; I-site mutant, tested for loss of binding
T3 construct: soluble degenerate GGDEF domain, residues 112 to 283 (4 TM helices removed), from E. coli BL21(DE3)

His6-DgcK-ΔN175 [3] = molecular target: B4; assay: pull-down; 2 nmol His6-DgcK-ΔN175 immobilised on nickel-Sepharose beads, 20 nmol prey, with or without added c-di-GMP; buffer A (20 mM HEPES-Na pH 7.5, 250 mM NaCl, 20 mM MgCl2, 20 mM KCl, 0.05% Tween); elution with 500 mM imidazole; Coomassie-stained SDS-PAGE; conditions: both partners purified
GST-His6-DgcK-ΔN175 = molecular target: T4, GST-His6-DgcK-ΔN175 (Bacillus subtilis NCIB 3610, UniProt P54595 176-359); assay: pull-down; 2 nmol GST-His6-DgcK-ΔN175 immobilised on glutathione-Sepharose 4B, 20 nmol His6-YdaK-ΔN111 or its R202A variant, with or without added c-di-GMP; 4°C, buffer A; Coomassie-stained SDS-PAGE; conditions: both partners purified
T4 construct: Diguanylate cyclase DgcK of Bacillus subtilis NCIB 3610, soluble domain, residues 176 to 359 (construct pAT02a); also called pAT02a; source: E. coli BL21(DE3), purified (Ni-NTA, SEC); not shown: GST, N-terminal, kept; His6, N-terminal, kept
T4 sequence (looked up): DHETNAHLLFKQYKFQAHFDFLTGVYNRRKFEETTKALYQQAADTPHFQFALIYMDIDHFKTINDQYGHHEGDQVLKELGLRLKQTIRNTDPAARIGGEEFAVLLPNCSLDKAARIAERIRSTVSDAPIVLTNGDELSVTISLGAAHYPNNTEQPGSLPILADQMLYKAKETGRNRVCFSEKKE

His6-DgcK-ΔN175 [4] = molecular target: B4; assay: pull-down; 2 nmol GST-His6-YdaK-ΔN111 (or GST) immobilised on glutathione-Sepharose 4B, 20 nmol His6-DgcK-ΔN175, with or without added c-di-GMP; 4°C, buffer A (20 mM HEPES-Na pH 7.5, 250 mM NaCl, 20 mM MgCl2, 20 mM KCl, 0.05% Tween); Coomassie-stained SDS-PAGE; conditions: both partners purified
GST-His6-DgrA = molecular target: B5; assay: pull-down; 2 nmol GST-His6-DgrA (or GST control) immobilised on glutathione-Sepharose beads, 20 nmol His6-DgcK-ΔN175, with or without 2 mM c-di-GMP; 4°C, buffer A; Coomassie-stained SDS-PAGE; conditions: both partners purified
DgcP-StrepII = molecular target: T5, DgcP-StrepII (Bacillus subtilis NCIB 3610, UniProt O34325 1-579); assay: pull-down; 2 nmol DgcP-StrepII immobilised on Strep-Tactin-Sepharose, 20 nmol GST-His6-DgrA, with or without 2 mM c-di-GMP; buffer A; elution with 50 mM D-biotin; Coomassie-stained SDS-PAGE; conditions: both partners purified
T5 construct: soluble diguanylate cyclase DgcP of Bacillus subtilis NCIB 3610, residues 1 to 579, full length (construct pPB25); also called pPB25; source: E. coli BL21(DE3), purified (StrepTrap HP, SEC); not shown: StrepII, C-terminal, kept
T5 sequence (looked up): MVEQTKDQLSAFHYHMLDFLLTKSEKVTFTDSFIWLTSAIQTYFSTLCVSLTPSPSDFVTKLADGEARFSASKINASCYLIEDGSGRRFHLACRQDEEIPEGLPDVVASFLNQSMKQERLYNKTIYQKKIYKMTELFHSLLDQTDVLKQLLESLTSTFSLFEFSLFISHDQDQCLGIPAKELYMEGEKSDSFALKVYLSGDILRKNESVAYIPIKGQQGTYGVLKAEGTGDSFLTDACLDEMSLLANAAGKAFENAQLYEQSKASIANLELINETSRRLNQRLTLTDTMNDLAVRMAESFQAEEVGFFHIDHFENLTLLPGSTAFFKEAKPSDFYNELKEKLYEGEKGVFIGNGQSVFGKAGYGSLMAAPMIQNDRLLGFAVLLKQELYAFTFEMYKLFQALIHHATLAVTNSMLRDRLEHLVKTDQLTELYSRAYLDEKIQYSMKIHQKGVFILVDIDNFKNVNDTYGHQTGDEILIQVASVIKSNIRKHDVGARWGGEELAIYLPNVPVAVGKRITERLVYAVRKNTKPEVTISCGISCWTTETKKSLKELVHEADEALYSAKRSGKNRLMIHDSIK

T3 sequence (P96585 112-283 R202A): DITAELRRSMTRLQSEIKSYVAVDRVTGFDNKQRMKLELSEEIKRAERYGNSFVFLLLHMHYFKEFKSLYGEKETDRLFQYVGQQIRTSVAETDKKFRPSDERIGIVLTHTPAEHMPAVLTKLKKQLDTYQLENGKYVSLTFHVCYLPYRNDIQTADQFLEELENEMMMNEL

B3: GST-His6-YdaK-ΔN111 (domain or fragment, Bacillus subtilis NCIB 3610, UniProt P96585 112-283, looked up)
chain: DITAELRRSMTRLQSEIKSYVAVDRVTGFDNKQRMKLELSEEIKRAERYGNSFVFLLLHMHYFKEFKSLYGEKETDRLFQYVGQQIRTSVRETDKKFRPSDERIGIVLTHTPAEHMPAVLTKLKKQLDTYQLENGKYVSLTFHVCYLPYRNDIQTADQFLEELENEMMMNEL
notes: c-di-GMP receptor YdaK of Bacillus subtilis NCIB 3610, soluble domain, residues 112 to 283 (construct pAT03a); also called pAT03a; not shown: GST, N-terminal, kept
binding result (His6-DgcK-ΔN175 [4]): binds

Molecule: B4
binding result (GST-His6-DgrA): binds

Molecule: B5
binding result (DgcP-StrepII): binds

Second part, led by results:

loading (DgcK-ΔN175): ~ 25%
Molecule: Nc1nc2c(ncn2[C@@H]2O[C@@H]3COP(=O)(O)O[C@H]4[C@@H](O)[C@H](n5cnc6c(=O)[nH]c(N)nc65)O[C@@H]4COP(=O)(O)O[C@H]3[C@H]2O)c(=O)[nH]1 [c-di-GMP]
decrease in H/D exchange (YdaK-ΔN111 [1]): presence of c-di-GMP resulted in a strong decrease in H/D exchange in many parts of YdaK
no alterations in HDX (YdaK-ΔN111 [2]): indicating the inability of c-di-GMP to bind to this variant

binding result (His6-DgcK-ΔN175 [3]): binds
B1: GST-YdaK-ΔN111 (domain or fragment, Bacillus subtilis NCIB 3610, UniProt P96585 112-283, looked up)
chain: DITAELRRSMTRLQSEIKSYVAVDRVTGFDNKQRMKLELSEEIKRAERYGNSFVFLLLHMHYFKEFKSLYGEKETDRLFQYVGQQIRTSVRETDKKFRPSDERIGIVLTHTPAEHMPAVLTKLKKQLDTYQLENGKYVSLTFHVCYLPYRNDIQTADQFLEELENEMMMNEL
notes: c-di-GMP receptor YdaK of Bacillus subtilis NCIB 3610, soluble domain (degenerated GGDEF domain), residues 112 to 283 (construct pAT03c); also called pAT03c; source: E. coli BL21(DE3), purified (GSTrap FF, SEC); not shown: GST, N-terminal, kept

binding result (GST-His6-DgcK-ΔN175): binds
B2: His6-YdaK-ΔN111 (domain or fragment, Bacillus subtilis NCIB 3610, UniProt P96585 112-283, looked up)
chain: DITAELRRSMTRLQSEIKSYVAVDRVTGFDNKQRMKLELSEEIKRAERYGNSFVFLLLHMHYFKEFKSLYGEKETDRLFQYVGQQIRTSVRETDKKFRPSDERIGIVLTHTPAEHMPAVLTKLKKQLDTYQLENGKYVSLTFHVCYLPYRNDIQTADQFLEELENEMMMNEL
notes: c-di-GMP receptor YdaK of Bacillus subtilis NCIB 3610, soluble domain, residues 112 to 283 (construct pAT03b); also called native YdaK; pAT03b; source: E. coli BL21(DE3), purified (Ni-NTA, SEC); not shown: His6, N-terminal, kept
